B1: anti-DLL3 trispecific protein 2E01 (protein, part only; not given: anti-CD3 and anti-albumin domains, part only)
chain, part: EVQLVESGGGLVQPGGSLTLSCVASGSTSSINAMGWYRRAPFKQGELPAGISPDGTKAYADSAKVRFTISRDNAKNSVYLQMNSLRAEDTAVYYCYYFHTVCGTSMGYWGQGTLVTVSSGGGGSGGGSGGGGSGGGSHHHHHH
B2: anti-DLL3 trispecific protein 2E011 (protein, part only; not given: CD3 binder and albumin binder, part only)
chain, part: EVQLVESGGGLVQPGGSLTLSCVASGSTSSINAIGWYRRAPGKQRELVAGISSDGSSVYADSVKGRFTISRDNAKNSVYLQMNSLRAEDTAVYYCYYFRRVSGSSMRYWGQGTLVTVSSGGGGSGGGSGGGGSGGGSHHHHHH
B3: anti-DLL3 trispecific protein 1C01 (protein, part only; not given: anti-CD3 and anti-albumin domains, part only)
chain, part: EVQLVESGGGLVQPGGSLTLSCVASGSTSSINAMGWYRRAPGKQRELVAGISSDGSKVYRDSVKGRFTISRDNAKNSVYLQMNSLRAEDTAVYYCYYFRTVSGSSMGYWGQGTLVTVSSGGGGSGGGSGGGGSGGGSHHHHHH
B4: anti-DLL3 trispecific protein 1F02 (protein, part only; not given: CD3 binder and albumin binder, part only)
chain, part: EVQLVESGGGLVQPGGSLTLSCVASGSTSSINAMAWYRRAPGKQRELAAGISSDQSKVYADSAKGRFTISRDNAKNSVYLQMNSLRAEDTAVYYCYYFRTVSGSSMSYWGQGTLVTVSSGGGGSGGGSGGGGSGGGSHHHHHH
B5: anti-DLL3 trispecific protein 2E05 (protein, part only; not given: CD3 fragment and albumin sdAb, part only)
chain, part: EVQLVESGGGLVQPGGSLTLSCVASGSPSSINAYGWYRRAPGKQRELVAGISSDGSKVYSDSVKGRFTISRDNAKNSVYLQMNSLRAEDTAVYYCYYFRTVSGSSMSYWGQGTLVTVSSGGGGSGGGSGGGGSGGGSHHHHHH
B6: anti-DLL3 trispecific protein 2G08 (protein, part only; not given: anti-CD3 and anti-albumin domains, part only)
chain, part: EVQLVESGGGLVQPGGSLTLSCVASGSTSYINAMGWYRRAPGKQRELVAGISSDGSKVYADSVKGRFTISRDNAKNSVYLQMNSLRAEDTAVYYCYYFRTVSGQSMGYWGQGTLVTVSSGGGGSGGGSGGGGSGGGSHHHHHH
B7: anti-DLL3 trispecific protein 1D011 (protein, part only; not given: anti-CD3 and anti-albumin domains, part only)
chain, part: EVQLVESGGGLVQPGGSLTLSCVASGSTSSINAMAWYRRAPGKQRELVAGISSDNSKVYADSVKGRFTISRDNAKNSVYLQMNSLRAEDTAVYYCYYFRTVSGHSMRYWGQGTLVTVSSGGGGSGGGSGGGGSGGGSHHHHHH
B8: anti-DLL3 trispecific protein 1E011 (protein, part only; not given: anti-CD3 and anti-albumin domains, part only)
chain, part: EVQLVESGGGLVQPGGSLTLSCVASGNTSSINAMGWYRRAPGKQRELVAGISSDGSKVYYDSVKGRFTISRDNAKNSVYLQMNSLRAEDTAVYYCYYFRTVRGSSQRYWGQGTLVTVSSGGGGSGGGSGGGGSGGGSHHHHHH
B9: anti-DLL3 trispecific protein 2E010 (protein, part only; not given: anti-CD3 and anti-albumin domains, part only)
chain, part: EVQLVESGGGLVQPGGSLTLSCVASGSTSSINAMAWYRRAPGKQRELVAGISSDGSKVYADSVKGRFTISRDNAKNSVYLQMNSLRAEDTAVYYCYYFHTVSGSSMRYWGQGTLVTVSSGGGGSGGGSGGGGSGGGSHHHHHH
B10: anti-DLL3 trispecific protein 1H012 (protein, part only; not given: anti-CD3 fragment and anti-albumin sdAb, part only)
chain, part: EVQLVESGGGLVQPGGSLTLSCVASGSTSSINAMGWYRRAPGKQRELVAGISSDGSKVYVDSVKGRFTISRDNAKNSVYLQMNSLRAEDTAVYYCYYFRTVSGSSMPYWGQGTLVTVSSGGGGSGGGSGGGGSGGGSHHHHHH
B11: anti-DLL3 trispecific protein 1A011 (protein, part only; not given: anti-CD3 and anti-albumin domains, part only)
chain, part: EVQLVESGGGLVQPGGSLTLSCVASGSTSSINAIGWYRRAPGKQRELVAGISSDGSKVYIDSVKGRFTISRDNAKNSVYLQMNSLRAEDTAVYYCYYFRTVSGSSYRYWGQGTLVTVSSGGGGSGGGSGGGGSGGGSHHHHHH
B12: anti-DLL3 trispecific protein 2C02 (protein, part only; not given: CD3 binder and albumin binder, part only)
chain, part: EVQLVESGGGLVQPGGSLTLSCVASGSTSSINAVGWYRRAPGKQRELVAGISSDGSKVYVDSVKGRFTISRDNAKNSVYLQMNSLRAEDTAVYYCYYFRTVYGSSMRYWGQGTLVTVSSGGGGSGGGSGGGGSGGGSHHHHHH
B13: anti-DLL3 trispecific protein 2D012 (protein, part only; not given: anti-CD3 fragment and anti-albumin sdAb, part only)
chain, part: EVQLVESGGGLVQPGGSLTLSCVASGKTSSINAMGWYRRAPGKQRELVAGISSDGSKVYTDSVKGRFTISRDNAKNSVYLQMNSLRAEDTAVYYCYYFRTRSGSSMRYWGQGTLVTVSSGGGGSGGGSGGGGSGGGSHHHHHH
B14: anti-DLL3 trispecific protein 2A011 (protein, part only; not given: anti-CD3 and anti-albumin domains, part only)
chain, part: EVQLVESGGGLVQPGGSLTLSCVASGSTSSINAIGWYRRAPGKQRELVAGISSDGSKVYSDSVKGRFTISRDNAKNSVYLQMNSLRAEDTAVYYCYYFRPVSGSSMRYWGQGTLVTVSSGGGGSGGGSGGGGSGGGSHHHHHH
B15: anti-DLL3 trispecific protein 1A012 (protein, part only; not given: CD3 binder and albumin binder, part only)
chain, part: EVQLVESGGGLVQPGGSLTLSCVASGSTSSINAMAWYRRAPGKQRELVAGISSDGSKVYSDSVKGRFTISRDNAKNSVYLQMNSLRAEDTAVYYCYYFRTVLGSSMRYWGQGTLVTVSSGGGGSGGGSGGGGSGGGSHHHHHH
B16: anti-DLL3 trispecific protein 1C010 (protein, part only; not given: CD3 binder and albumin binder, part only)
chain, part: EVQLVESGGGLVQPGGSLTLSCVASGSTSRINAMGWYRRAPGKQRELVAGVSSDGSKVYADSVKGRFTISRDNAKNSVYLQMNSLRAEDTAVYYCYYFRTVSGSSMSYWGQGTLVTVSSGGGGSGGGSGGGGSGGGSHHHHHH
B17: anti-DLL3 trispecific protein 1E09 (protein, part only; not given: CD3 fragment and albumin sdAb, part only)
chain, part: EVQLVESGGGLVQPGGSLTLSCVASGSTSSINAMAWYRRAPGKQRELVAGISSDGSKVYTDSVKGRFTISRDNAKNSVYLQMNSLRAEDTAVYYCYYFRTRSGSSMRYWGQGTLVTVSSGGGGSGGGSGGGGSGGGSHHHHHH
B18: anti-DLL3 trispecific protein 2H02 (protein, part only; not given: anti-CD3 and anti-albumin domains, part only)
chain, part: EVQLVESGGGLVQPGGSLTLSCVASGSTSSINAMAWYRRAPGKQRELAAGISSDGSKVYADSVKGRFTISRDNAKNSVYLQMNSLRAEDTAVYYCYYFHTVSGSSMRYWGQGTLVTVSSGGGGSGGGSGGGGSGGGSHHHHHH
B19: anti-DLL3 trispecific protein 1A05 (protein, part only; not given: CD3 fragment and albumin sdAb, part only)
chain, part: EVQLVESGGGLVQPGGSLTLSCVASGSPSSINAMGWYRRAPGKQRELSAGISSDGSKVYADSVKGRFTISRDNAKNSVYLQMNSLRAEDTAVYYCYYFRTVRGSSMSYWGQGTLVTVSSGGGGSGGGSGGGGSGGGSHHHHHH
B20: anti-DLL3 trispecific protein 3H011 (protein, part only; not given: CD3 fragment and albumin sdAb, part only)
chain, part: EVQLVESGGGLVQPGGSLTLSCAASGSSVKFLSMAWYRQAPGKKRELVAGISADGSTVYIDSVKGRFTISRDNAKNSVYLQMNSLRAEDTAVYYCYAYRWPTRYTYWGQGTLVTVSSGGGGSGGGSGGGGSGGGSHHHHHH
B21: anti-DLL3 trispecific protein 3F010 (protein, part only; not given: CD3 fragment and albumin sdAb, part only)
chain, part: EVQLVESGGGLVQPGGSLTLSCAASYSSVSRLSMAWYRQAPGKKRELVAGISADGSTVYIDSVKGRFTISRDNAKNSVYLQMNSLRAEDTAVYYCYAYRWTTRNTYWGQGTLVTVSSGGGGSGGGSGGGGSGGGSHHHHHH
B22: anti-DLL3 trispecific protein 3C03 (protein, part only; not given: anti-CD3 fragment and anti-albumin sdAb, part only)
chain, part: EVQLVESGGGLVQPGGSLTLSCAASGSSVRFLSMAWYRQAPGKKRELVAGISRDGSTVYIDSVKGRFTISRDNAKNSVYLQMNSLRAEDTAVYYCYAYRWTTRGTYWGQGTLVTVSSGGGGSGGGSGGGGSGGGSHHHHHH
B23: anti-DLL3 trispecific protein 4B011 (protein, part only; not given: CD3 fragment and albumin sdAb, part only)
chain, part: EVQLVESGGGLVQPGGSLTLSCAASGSSVTFLSMAWYRQAPGKKRELVAGISADGSTVYIDSVKGRFTISRDNAKNSVYLQMNSLRAEDTAVYYCYAYRWTTRGTYWGQGTLVTVSSGGGGSGGGSGGGGSGGGSHHHHHH
B24: anti-DLL3 trispecific protein 4H011 (protein, part only; not given: anti-CD3 and anti-albumin domains, part only)
chain, part: EVQLVESGGGLVQPGGSLTLSCAASGSSVSRLSMAWYRQAPGKKRELVAGISVDGSTDYIDSVKGRFTISRDNAKNSVYLQMNSLRAEDTAVYYCYAYRWTTRLTYWGQGTLVTVSSGGGGSGGGSGGGGSGGGSHHHHHH
B25: anti-DLL3 trispecific protein 4E02 (protein, part only; not given: CD3 binder and albumin binder, part only)
chain, part: EVQLVESGGGLVQPGGSLTLSCAASGSQVSFLSMAWYRQAPGKKRELVAGISADGSTVYIDSVKGRFTISRDNAKNSVYLQMNSLRAEDTAVYYCYAYRWSTRYTYWGQGTLVTVSSGGGGSGGGSGGGGSGGGSHHHHHH
B26: anti-DLL3 trispecific protein 4D09 (protein, part only; not given: CD3 binder and albumin binder, part only)
chain, part: EVQLVESGGGLVQPGGSLTLSCAASGSSVKFLSMAWYRQAPGKKRELVAGISADGSTDYILSVKGRFTISRDNAKNSVYLQMNSLRAEDTAVYYCYAYEWTTRYTYWGQGTLVTVSSGGGGSGGGSGGGGSGGGSHHHHHH
B27: anti-DLL3 trispecific protein 4G01 (protein, part only; not given: CD3 binder and albumin binder, part only)
chain, part: EVQLVESGGGLVQPGGSLTLSCAASGSSVRFLSMAWYRQAPGKKRELVAGISADGSTVYIDSVKGRFTISRDNAKNSVYLQMNSLRAEDTAVYYCYAYRWPTRYTYWGQGTLVTVSSGGGGSGGGSGGGGSGGGSHHHHHH
B28: anti-DLL3 trispecific protein 4D01 (protein, part only; not given: CD3 binder and albumin binder, part only)
chain, part: EVQLVESGGGLVQPGGSLTLSCAASGSSVRFLSMAWYRQAPGKKRELVAGISADGSTVYIDSVKGRFTISRDNAKNSVYLQMNSLRAEDTAVYYCYAYRWTTRRTYWGQGTLVTVSSGGGGSGGGSGGGGSGGGSHHHHHH
B29: anti-DLL3 trispecific protein 4B07 (protein, part only; not given: anti-CD3 fragment and anti-albumin sdAb, part only)
chain, part: EVQLVESGGGLVQPGGSLTLSCAASGSSVGFLSMAWYRQAPGKKRELVAGISADGSTVYIDSVKGRFTISRDNAKNSVYLQMNSLRAEDTAVYYCYAYRWTTRYTYWGQGTLVTVSSGGGGSGGGSGGGGSGGGSHHHHHH
B30: anti-DLL3 trispecific protein 3C04 (protein, part only; not given: anti-CD3 and anti-albumin domains, part only)
chain, part: EVQLVESGGGLVQPGGSLTLSCAASGSHVSFLSMAWYRQAPGKKRELVAGISADGPTDYIDSVKGRFTISRDNAKNSVYLQMNSLRAEDTAVYYCYAYRWDTRYTYWGQGTLVTVSSGGGGSGGGSGGGGSGGGSHHHHHH

biotinylated human DLL3 protein expressed as a human IgG1 fusion protein (human), sequence (Q9NYJ7 other isoform, or with tags, fused parts or gaps): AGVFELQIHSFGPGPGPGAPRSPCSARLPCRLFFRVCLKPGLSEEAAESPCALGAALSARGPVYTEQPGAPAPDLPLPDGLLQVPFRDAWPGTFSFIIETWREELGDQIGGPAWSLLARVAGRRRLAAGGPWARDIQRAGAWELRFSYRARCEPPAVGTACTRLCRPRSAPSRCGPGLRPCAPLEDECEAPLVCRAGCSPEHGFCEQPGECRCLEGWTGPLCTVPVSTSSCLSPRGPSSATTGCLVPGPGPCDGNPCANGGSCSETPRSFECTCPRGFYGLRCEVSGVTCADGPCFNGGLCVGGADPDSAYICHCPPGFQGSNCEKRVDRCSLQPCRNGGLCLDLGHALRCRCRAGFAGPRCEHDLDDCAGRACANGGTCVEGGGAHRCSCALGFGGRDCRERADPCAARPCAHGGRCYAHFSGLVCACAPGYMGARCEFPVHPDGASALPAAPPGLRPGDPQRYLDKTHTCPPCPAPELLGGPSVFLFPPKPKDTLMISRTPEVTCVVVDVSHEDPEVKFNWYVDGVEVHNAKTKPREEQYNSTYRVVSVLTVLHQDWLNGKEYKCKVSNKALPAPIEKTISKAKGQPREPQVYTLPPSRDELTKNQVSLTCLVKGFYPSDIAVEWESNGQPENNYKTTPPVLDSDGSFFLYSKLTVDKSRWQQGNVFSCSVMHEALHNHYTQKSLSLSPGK

The assay concerns the target biotinylated human DLL3 protein expressed as a human IgG1 fusion protein (human) (UniProt Q9NYJ7). The assay is described as follows: Octet BLI; biotinylated huDLL3-IgG1 fusion on streptavidin tips; single 50 nM; conditioned medium.
As for B1, the Kd worked out at 4.1 nM.

For the molecule B2, the equilibrium dissociation constant (Kd) is 2.4 nM.

With B3, the dissociation constant (Kd) was 4.3 nM.

In turn, B4 came in with a Kd of 4 nM.

In the case of B5, the dissociation constant Kd is 3.9 nM.

Turning to B6, the Kd came out at 4.1 nM.

The molecule B7 yielded a Kd of 4.4 nM.

The molecule B8 had a Kd of 2.7 nM.

Molecule B9 yielded a Kd of 4 nM.

Regarding B10, the Kd was 3.5 nM.

In turn, B11 registered a dissociation constant (Kd) of 3.7 nM.

Regarding B12, the Kd is 4.1 nM.

In the case of B13, the Kd worked out at 4.9 nM.

In turn, B14 registered a Kd of 4 nM.

B15: the Kd was 4.9 nM.

Regarding B16, the Kd is 2.5 nM.

B17 registered a Kd of 4.4 nM.

As for B18, the Kd came out at 4.4 nM.

In turn, B19 yielded a dissociation constant (Kd) of 4 nM.

B20 yielded a Kd of 2.7 nM.

Molecule B21 returned a Kd of 4.4 nM.

For the molecule B22, the Kd worked out at 4.9 nM.

Consider B23, for which the Kd was found to be 3.9 nM.

Regarding B24, the dissociation constant Kd came to 4.5 nM.

In turn, B25 came in with a dissociation constant (Kd) of 3.8 nM.

Molecule B26 yielded a Kd of 4.7 nM.

In turn, B27 gave a Kd of 3.6 nM.

Turning to B28, the Kd was found to be 3.7 nM.

B29 showed a Kd of 4.3 nM.

For the molecule B30, the Kd was 4.5 nM.

Values taken from US20200095340A1.
